The values below come from publication PMC12348683.

This data set deals with T1, KwaB (O55) (Escherichia coli O55, UniProt P0DW46 1-315).
T1 sequence: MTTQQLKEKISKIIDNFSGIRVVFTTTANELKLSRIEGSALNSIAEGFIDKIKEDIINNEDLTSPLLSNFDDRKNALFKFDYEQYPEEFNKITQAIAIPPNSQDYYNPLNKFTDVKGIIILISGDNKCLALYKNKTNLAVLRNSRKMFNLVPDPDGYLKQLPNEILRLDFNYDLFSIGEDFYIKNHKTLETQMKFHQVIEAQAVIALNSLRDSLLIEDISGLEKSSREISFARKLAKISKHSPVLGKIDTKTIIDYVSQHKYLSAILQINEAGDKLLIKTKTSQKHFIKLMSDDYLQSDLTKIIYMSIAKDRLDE
Put plainly: EMSA.

B1: 72-bp dsDNA (dsDNA)
DNA 1: TGGTTTTTATATGTTTTGTTATGTATTGTTTATTTTCCCTTTAATTTTAGGATATGAAAACAAGAATTTATC
DNA 2: GATAAATTCTTGTTTTCATATCCTAAAATTAAAGGGAAAATAAACAATACATAACAAAACATATAAAAACCA
In the case of B1, the binding result was “binds”.
